For assay [1], the target named is T1, CD16aV allotype of human CD16a expressed on Jurkat-Lucia-NFAT-CD16 Reporter cells (InvivoGen) (human, UniProt P08637 17-254). Description: cell-based or functional assay.
In assay [2] the target is T1, CD16aV allotype of human CD16a …. As to the kind of experiment: cell-based or functional assay. The source holds these as a separate data set.
Assay [3] addresses T2, CD32a expressed on Jurkat-NFAT-CD32a reporter cells (Invivogen jktl-nfat-cd32) (UniProt P12318 34-317, limits assumed).
T2 construct: whole, on cells; also called Jurkat-Lucia NFAT-CD32a Reporter cells; Fc receptor CD32a
T2 sequence (looked up): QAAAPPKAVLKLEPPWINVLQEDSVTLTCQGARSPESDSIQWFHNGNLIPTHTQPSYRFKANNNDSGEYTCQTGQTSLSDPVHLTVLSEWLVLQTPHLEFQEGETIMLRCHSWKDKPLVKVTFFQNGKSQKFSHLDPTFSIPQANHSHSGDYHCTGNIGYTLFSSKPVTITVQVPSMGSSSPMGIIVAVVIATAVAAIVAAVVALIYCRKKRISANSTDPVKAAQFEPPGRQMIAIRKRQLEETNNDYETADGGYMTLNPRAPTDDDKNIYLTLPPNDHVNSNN
As to the kind of experiment: flow cytometry on Jurkat-NFAT-CD32a cells, 4-fold serial dilutions, detection with anti-DARPin 1.1.1 antibody. Here is the method: Serial dilutions (4-fold) of the constructs were incubated 30 min at 4° C. with 50000 cells in a 96-well plate. Detection antibody (anti-DARPin 1.1.1 Alexa Fluor […]) was subsequently added to the wells (2 μg/ml diluted in FACS buffer) and incubated at 4° C. for 30 min. Cold buffer was added, then cells were spun down prior to supernatant removal. Cells were then fixed with Cell fix buffer (BD) and signal was measured by flow cytometry.

For assay [4], the target named is T1, CD16aV allotype of human CD16a …. Description: flow cytometry on Jurkat-CD16aV cells, 5-fold serial dilutions, detection with Penta-His Alexa Fluor 488. Here is the method: (§1) Serial dilutions (5-fold) of the constructs were incubated 30 min at 4° C. with 50000 cells in a 96-well plate. […] Cold buffer was added, then cells were spun down prior to supernatant removal. Cells were then fixed with Cell fix buffer (BD) and signal was measured by flow cytometry.
On the technique in general: Flow cytometry measures light scatter and fluorescence of single cells or particles in a stream.

In assay [5] the target is T3, full length human CD16b stably expressed on transduced WT Jurkat cells (human, UniProt O75015 17-200).
T3 construct: whole, on cells; also called CD16b expressing cells; Jurkat CD16b
T3 sequence (O75015 17-200): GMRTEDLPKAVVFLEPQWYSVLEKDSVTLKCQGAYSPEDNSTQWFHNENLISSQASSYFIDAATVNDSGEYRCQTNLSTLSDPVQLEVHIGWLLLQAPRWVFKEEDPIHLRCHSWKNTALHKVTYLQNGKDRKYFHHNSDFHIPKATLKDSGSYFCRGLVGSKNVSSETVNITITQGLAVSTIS
Description: flow cytometry on Jurkat-CD16b cells, 5-fold serial dilutions, detection with Penta-His Alexa Fluor 488. Here is the method: as §1

Assay [6] deals with T4, biotinylated human CD16aV target (bio-CD16aV of SEQ ID NO: 72) (human, UniProt P08637 17-208, biotinylated (Sulfo-NHS-LC-Biotin kit)).
T4 construct: also called recombinant CD16a target
T4 sequence (P08637 other isoform, or with tags, fused parts or gaps): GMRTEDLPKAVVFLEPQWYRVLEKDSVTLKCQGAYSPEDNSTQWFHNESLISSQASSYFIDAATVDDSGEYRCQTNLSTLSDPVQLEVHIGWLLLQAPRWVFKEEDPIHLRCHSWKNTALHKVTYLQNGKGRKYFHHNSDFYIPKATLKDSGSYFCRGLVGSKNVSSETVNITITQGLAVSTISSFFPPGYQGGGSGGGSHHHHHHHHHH
Description: SPR (ProteOn XPR36), bio-CD16aV immobilised on NLC chip, construct injected at 100 nM and 1:3 dilutions, PBST, 1:1 Langmuir fit. The protocol: SPR measurements were performed using a ProteOn XPR36 instrument (BioRad). […] The signals were double referenced against the running buffer (PBST) treated control lanes.

The target of assay [7] is T4, biotinylated human CD16aV target …. As to the kind of experiment: SPR (ProteOn XPR36), biotinylated target on neutravidin chip, DARPin injected at 100 nM and 1:3 dilutions, 1:1 Langmuir fit. Here is the method: (§2) SPR measurements were performed using a ProteOn XPR36 instrument (BioRad). Each of biotinylated human target (bio-CD16aV of SEQ ID NO: 72) and biotinylated cyno target (bio-cCD16 of SEQ ID NO: 76) were immobilized on a neutravidin chip (NAHLC200M, Xantec ProteOn Sensor Chip) to a level of about 320 RU. The interactions of purified CD16a-specific ankyrin construct with bio-CD16aV or bio-cCD16 were measured by injecting the DARPins at 100 nM (and 1:3 dilutions) with an association of 180 s and dissociation of 600 s using a constant flow of 30 μl/min. The target was regenerated between the individual measurements using 31 mM H3PO4. The signals were double referenced against the running buffer (PBST) treated control lanes. The KD were calculated with a 1:1 Langmuir model fitting from the estimated on- and off-rates using standard procedures known to the person skilled in the art.

Assay [8] deals with T5, biotinylated cynomolgus CD16 target (bio-cCD16 of SEQ ID NO: 76) (cynomolgus monkey, biotinylated).
T5 construct: also called Cyno CD16a
T5 chain: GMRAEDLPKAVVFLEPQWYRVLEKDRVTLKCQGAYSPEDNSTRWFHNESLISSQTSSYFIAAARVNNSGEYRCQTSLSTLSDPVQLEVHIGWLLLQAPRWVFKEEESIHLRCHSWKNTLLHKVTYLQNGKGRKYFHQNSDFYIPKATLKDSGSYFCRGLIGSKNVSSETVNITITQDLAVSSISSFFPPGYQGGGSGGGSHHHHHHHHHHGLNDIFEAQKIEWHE
The assay is described as above. Here is the method: as §2

Assay [9] concerns the target T1, CD16aV allotype of human CD16a …. Description: flow cytometry on Jurkat-CD16aV cells, serial dilutions, detection with Penta-His Alexa Fluor 647.
Assay [10] concerns the target T3, full length human CD16b stably …. Description: flow cytometry on Jurkat-CD16b cells, serial dilutions, detection with Penta-His Alexa Fluor 647.
The target of assay [11] is T1, CD16aV allotype of human CD16a …. Description: cell-based or functional assay. The source holds these as a separate data set.
The target in assay [12] is T3, full length human CD16b stably …. Description: flow cytometry on Jurkat cells expressing CD16b, conditions as in Example 2.
The target in assay [13] is T1, CD16aV allotype of human CD16a …. As to the kind of experiment: flow cytometry on Jurkat cells expressing CD16aV, conditions as in Example 2.

Consider nine molecules from US20260250338A1 (Molecular Partners, published 2026).

Where a chain is given by its changes, count along the chain named.

T1 sequence (P08637 17-254 F176V): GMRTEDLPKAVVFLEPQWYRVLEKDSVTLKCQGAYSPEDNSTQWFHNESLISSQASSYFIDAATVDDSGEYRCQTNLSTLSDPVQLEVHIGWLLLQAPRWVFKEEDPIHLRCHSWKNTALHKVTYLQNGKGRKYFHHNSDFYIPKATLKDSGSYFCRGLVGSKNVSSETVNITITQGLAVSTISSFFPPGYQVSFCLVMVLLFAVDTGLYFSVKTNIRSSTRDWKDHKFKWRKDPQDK

B1: Construct No. 7 (SEQ ID NO: 10), 2D (HER2 × CD16a), DARPin #2 with N-terminal HER2 binder of SEQ ID NO: 8 (designed binder)
chain: MRGSHHHHHHGSDLGKKLLEAARAGQDDEVRELLKAGADVNAKDEYGLTPLYLATAHGHLEIVEVLLKAGADVNAVDAIGFTPLHLAAFIGHLEIAEVLLKAGADVNAQDKFGKTPADIAAGAGNEDIAEVLQKAAGSPTPTPTTPTPTPTTPTPTPTGSDLGQKLLRAAKKGQDDEVRELLKAGADVNAKDEQGWTPLHIAAWKGHLEIVEVLLKAGADVNAKDVFDWTPLHVAAHFGHLEIVEVLLKAGADVNAQDRAGETPADLAAQAGHEDIAEVLQKAA
notes: Bispecific DARPin; also called Construct 7
Consider B1, for which the “EC50 (pM), ADCC reporter assay (luminescence), SKOV3 target cells, E:T 5:1, 5 h” value in assay [1] came to 0.37 pM. For the same molecule, the “EC50 ADCC reporter assay (CD16a) (pM), SKOV3 target cells, E:T 1:1, 24 h” value in assay [2] amounted to 4 pM. Also, in [3], the binding result is “no binding (tested: 400 nM)”.

B2: Construct No. 2 (1D CD16a; DARPin #3 of SEQ ID NO: 3 with N-terminal His tag) (designed binder)
chain: MRGSHHHHHHGSDLGKKLLQAARAGQLDEVRELLKAGADVNAKDEQGRTPLHIAAASGHLEIVEVLLKAGADVNAKDWFGITPLHIAAWWGHLEIVEVLLKAGADVNAKDQEGRTPLHIAAAIGHLEIVEVLLKAGADVNAQDKSGKTPADLAARAGHQDIAEVLQKAA
notes: also called Construct 2
What is called EC50 (read off the curve) is the midpoint of the concentration-response curve. A higher EC50 (read off the curve) goes with weaker potency. Turning to B2, the “EC50 (read off the curve)” value in assay [4] is ~20 nM. In assay [5], the binding result is given as “no binding (tested: 1000 nM)”.

B3: Construct No. 1 (1D CD16a; DARPin #2 of SEQ ID NO: 2 with N-terminal His tag) (designed binder)
chain: MRGSHHHHHHGSDLGQKLLRAAKKGQDDEVRELLKAGADVNAKDEQGWTPLHIAAWKGHLEIVEVLLKAGADVNAKDVFDWTPLHVAAHFGHLEIVEVLLKAGADVNAQDRAGETPADLAAQAGHEDIAEVLQKAA
notes: also called Construct 1
By Kd is commonly meant the free concentration of one partner at which half of the binding sites on the other are occupied at equilibrium, for simple one-to-one binding. In the case of B3, the Kd in assay [6] turned out to be 3.3 nM; in assay [7], 5.94 nM; in assay [8] it was 3.41 nM. Moreover, the binding result in [4] is on record as “binds”; in assay [5], “no binding (tested: 1000 nM)”.

B4: DARPin #7 (SEQ ID NO: 7) with N-terminal His tag (designed binder)
chain: B3 chain with I53N
On to B4, for which the Kd in [7] came to 1.98 nM; in assay [8], 0.904 nM.

B5: Construct No. 17 (SEQ ID NO: 20), 2D (HER2 × CD16a), DARPin #5 with N-terminal HER2 binder of SEQ ID NO: 9 (designed binder)
chain: MRGSHHHHHHDYKDDDDKPTPTPTGSDLGIKLLFAAAKGQDDEVRELLKAGADVNAKDFQGVTPLHIAAQSGHLEIVEVLLKAGADVNAKDVTGDTPLHLAAQHGHLEIVEVLLKAGADVNAQDERGWTPADLAADWGHEDIAEVLQKAAGSPTPTPTTPTPTPTTPTPTPTGSDLGAKLLRAAKKGQDDEVRELLKAGADVNAKDELGFTPLHVAAEEGHLEIVEVLLKAGADVNAKDSWGATPLHVAAWVGHLEIVEVLLKAGADVNAQDQEGQTPADLAAEAGHEDIAEVLQKAA
notes: Bispecific DARPin; also called Construct 17
B5: the binding result in assay [9] was “binds”; in assay [10] it was “no binding (tested: 1000 nM)”.

B6: Construct No. 18 (SEQ ID NO: 21), 2D (HER2 × CD16a), DARPin #6 with N-terminal HER2 binder of SEQ ID NO: 9 (designed binder)
chain: MRGSHHHHHHDYKDDDDKPTPTPTGSDLGIKLLFAAAKGQDDEVRELLKAGADVNAKDFQGVTPLHIAAQSGHLEIVEVLLKAGADVNAKDVTGDTPLHLAAQHGHLEIVEVLLKAGADVNAQDERGWTPADLAADWGHEDIAEVLQKAAGSPTPTPTTPTPTPTTPTPTPTGSDLGKKLLEAAEEGQDDEVRELLKAGADVNAKDEWGSTPLHIAAWVGHLEIVEVLLKAGADVNAKDSLGATPLHLAAEAGHLEIVEVLLKAGADVNAQDLKGKTPADLAALEGHEDIAEVLQKAA
notes: Bispecific DARPin; also called Construct 18
B6: the binding result is “binds” in assay [9] and “no binding (tested: 1000 nM)” in assay [10].

B7: Construct No. 3 (SEQ ID NO: 13), 2D (CD16a × HER2), DARPin #2 with C-terminal HER2 binder of SEQ ID NO: 9 (designed binder)
chain: MRGSHHHHHHGSDLGQKLLRAAKKGQDDEVRELLKAGADVNAKDEQGWTPLHIAAWKGHLEIVEVLLKAGADVNAKDVFDWTPLHVAAHFGHLEIVEVLLKAGADVNAQDRAGETPADLAAQAGHEDIAEVLQKAAGSPTPTPTTPTPTPTTPTPTPTGSDLGIKLLFAAAKGQDDEVRELLKAGADVNAKDFQGVTPLHIAAQSGHLEIVEVLLKAGADVNAKDVTGDTPLHLAAQHGHLEIVEVLLKAGADVNAQDERGWTPADLAADWGHEDIAEVLQKAA
notes: Bispecific DARPin; also called Construct 3
For the molecule B7, the “EC50 (pM), ADCC reporter assay (luminescence), SKOV3 target cells, E:T 5:1, 5 h” value in assay [1] stood at 0.19 pM. For the same molecule, the binding result in assay [3] is listed as “no binding (tested: 400 nM)”; in assay [5], “no binding (tested: 1000 nM)”.

B8: Construct No. 16 (SEQ ID NO: 19), 2D (HER2 × CD16a), DARPin #4 with N-terminal HER2 binder of SEQ ID NO: 9 (designed binder)
chain: MRGSHHHHHHDYKDDDDKPTPTPTGSDLGIKLLFAAAKGQDDEVRELLKAGADVNAKDFQGVTPLHIAAQSGHLEIVEVLLKAGADVNAKDVTGDTPLHLAAQHGHLEIVEVLLKAGADVNAQDERGWTPADLAADWGHEDIAEVLQKAAGSPTPTPTTPTPTPTTPTPTPTGSDLGEKLLLAAALGQDDEVRELLKAGADVNAKDVQGSTPLHLAAVEGHLEIVEVLLKAGADVNAKDQWGQTPLHVAAIWGHLEIVEVLLKAGADVNAQDELGKTPADLVALQGHEDIAEVLQKAA
notes: Bispecific DARPin; also called Construct 16
Take B8: the binding result in assay [9] is on record as “binds”; in assay [10], “no binding (tested: 1000 nM)”.

B9: Construct 25 (SEQ ID NO: 94), CD117 × CD16a, CD117 binder SEQ ID NO: 84 N-terminal of DARPin #7 (designed binder)
chain: MRGSHHHHHHGSDLGQKLLKAAQYGQDDEVRILLAAGADVNAKDWAGKTPLHVAAEAGHLEIVEVLLKAGADVNAKDKAGETPLHLAAEQGHLEIVEVLLKAGADVNAQDEWGQTPADLAAYYGLEDIAEVLQKAAGSPTPTPTTPTPTPTTPTPTPTGSDLGQKLLRAAKKGQDDEVRELLKAGADVNAKDEQGWTPLHNAAWKGHLEIVEVLLKAGADVNAKDVFDWTPLHVAAHFGHLEIVEVLLKAGADVNAQDRAGETPADLAAQAGHEDIAEVLQKAA
notes: Bispecific DARPin; also called Construct No. 25
As usually defined, the EC50 is the midpoint of the concentration-response curve. On to B9, for which, in assay [11], the “EC50 (pM), DDCC reporter assay (luminescence), Kasumi-1 target cells, E:T 1:1, 24 h” value turned out to be 59.5 pM and the “Top (RLU), DDCC reporter assay (luminescence), Kasumi-1 target cells” value was determined as 36400 RLU. For the same molecule, in [12], the binding result is on record as “no binding”. For the same molecule, the EC50 in [13] came out at 25.3 nM.
